# Molecular target: the molecule itself
# Experiment: SEC-MALS; MALLS on each separated gel filtration peak; Wyatt EOS 18-angle light scattering detector, Optilab r-EX refractometer
protein,measurement,value
"Fibrillin-1 fragment PF17-1 WMS (Weill-Marchesani syndrome deletion mutant) (domain or fragment, human fibrillin-1, fragment PF17-1 (exons 30-43, residues 1238-1807) with the 8 amino acid deletion in TB5 found in patients with WMS; Purifies as a monomer (86%) and a disulfide-linked dimer (14%); the deletion removes Cys 1695; also called WMS mutant) not shown",stoichiometry N,2

# Reference: PMC3487758, “Fibrillin-1 Mutations Causing Weill-Marchesani Syndrome and Acromicric and Geleophysic Dysplasias Disrupt Heparan Sulfate Interactions” (PLoS ONE, 2012)
